These results are taken from PMC3206593 (Bioorganic & medicinal chemistry, 2011).

Broadly, the Ki is a measure of affinity in units of concentration, obtained from inhibition or displacement. A higher Ki goes with a looser hold on the target.

Positions of bridges follow the written chain, without caps; N, C: chain ends. No end group written: not given here.

One test concerns the target T1, Aurora A (Homo sapiens, UniProt O14965).
T1 sequence (O14965 1-403): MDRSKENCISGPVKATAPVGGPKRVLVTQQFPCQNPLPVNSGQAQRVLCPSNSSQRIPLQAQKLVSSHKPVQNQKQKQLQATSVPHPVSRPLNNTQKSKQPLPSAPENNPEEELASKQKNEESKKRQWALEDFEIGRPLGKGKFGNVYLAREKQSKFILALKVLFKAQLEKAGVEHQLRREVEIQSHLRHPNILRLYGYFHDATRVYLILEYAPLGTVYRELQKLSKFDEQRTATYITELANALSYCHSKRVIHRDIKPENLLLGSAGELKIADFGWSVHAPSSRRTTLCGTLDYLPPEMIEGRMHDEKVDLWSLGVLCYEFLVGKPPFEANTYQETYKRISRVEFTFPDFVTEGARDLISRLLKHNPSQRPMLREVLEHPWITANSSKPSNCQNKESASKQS
The conditions noted are these: at a concentration of 100 μM; peptide appended to the helices; cited from earlier work.

Test [1] deals with T2, (CTRPWWLC)G cyclic peptide (disulfide 1-8 (inferred)).
T2 chain: CTRPWWLCG-NH2
Description: radiometric kinase kinetic assay.

As to GRRVVVSFAWD, the “inhibition of Aurora A” value with Aurora A is given as 35%.

B1: Aurora kinase A (protein)
chain: MDRSKENCISGPVKATAPVGGPKRVLVTQQFPCQNPLPVNSGQAQRVLCPSNSSQRIPLQAQKLVSSHKPVQNQKQKQLQATSVPHPVSRPLNNTQKSKQPLPSAPENNPEEELASKQKNEESKKRQWALEDFEIGRPLGKGKFGNVYLAREKQSKFILALKVLFKAQLEKAGVEHQLRREVEIQSHLRHPNILRLYGYFHDATRVYLILEYAPLGTVYRELQKLSKFDEQRTATYITELANALSYCHSKRVIHRDIKPENLLLGSAGELKIADFGWSVHAPSSRRTTLCGTLDYLPPEMIEGRMHDEKVDLWSLGVLCYEFLVGKPPFEANTYQETYKRISRVEFTFPDFVTEGARDLISRLLKHNPSQRPMLREVLEHPWITANSSKPSNCQNKESASKQS
Consider B1, for which, in test [1], the Ki came to 31 µM.
